From the supplement of paper PMC12042874 come the findings set out here.

This data set in a line: amyloid nucleation score (Sup35N fusion, yeast selection) (log enrichment); library NNK1; higher = more nucleation; inactive = no reads after selection. The method, boiled down:
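The nucleation score is the DiMSum log enrichment of output over input reads, centred on the mode score of non-aggregating sequences. Only sequences with 100 or more input reads were scored, using Illumina sequencing of input and output plasmid inserts. Psi-negative yeast expressing Sup35N fused to peptides of 20 random codons were induced 24 hours with 100 μM copper sulfate and grown 7 days at 30°C on medium lacking adenine and uracil.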

± gives the uncertainty stated by the source.

The substance RTIHAIERDDCLRGNSGKNN yielded an amyloid nucleation score of 1.12 ± 0.57.

ITMWMPRILRVTITYDTRG displayed an amyloid nucleation score of 0.111 ± 1.2.

On to VSTILYFDFVSVLPSALIEK, for which the amyloid nucleation score was 3.23 ± 0.18.

With ASPHWGSCNKTLRDGPRQVL, the amyloid nucleation score is -0.677 ± 0.65.

For the substance ITYMYGYCMDYF, the amyloid nucleation score was found to be 0.439 ± 0.38.

As to CLFSWD, the amyloid nucleation score amounted to 0.118 ± 0.3.

In the case of LCTLTVNYRSEHSYFYCINF, the amyloid nucleation score was -0.319 ± 0.41.

As to MGSEVSELWGLVEVKVGDKP, the amyloid nucleation score is 0.617 ± 0.52.

DMKNDYLHVGFWVLIGWHYL came in with an amyloid nucleation score of 0.743 ± 0.37.

For the substance LNHNIFVFFLQIIQTHDIWF, the amyloid nucleation score was found to be 4.87 ± 0.09.

Take NGTTLVAVSYELPLSGVLSK: the amyloid nucleation score is -0.798 ± 0.57.

With NADCLIDDFASFDHMVPG, the amyloid nucleation score turned out to be 0.004 ± 0.51.

With QGSSSGITQFGMPTYLGIIC, the amyloid nucleation score is 0.61 ± 0.47.

The substance FNMENVGKSQSRAAVRVRH displayed an amyloid nucleation score of 0.961 ± 0.42.

TWTLL yielded an amyloid nucleation score of 1.18 ± 0.63.

On to NRRVPLIHCYLMCGYTGTCW, for which the amyloid nucleation score amounted to 0.249 ± 0.4.

TLSFIRAYSVPHQVLRMESL yielded an amyloid nucleation score of 0.87 ± 0.64.

Turning to YFHPLTKLI, the amyloid nucleation score was -0.288 ± 0.82.

TFSDSLKNLQVMVHYSWVVG had an amyloid nucleation score of 0.224 ± 1.4.

Substance AGDTGFTHTYSCWIKQWFVF returned an amyloid nucleation score of 0.705 ± 0.47.

Consider GTLPLKDKGPYRDL, for which the amyloid nucleation score was -1.08 ± 1.4.

For PCLVGIDMVTMVAESLCGSG, the amyloid nucleation score is -0.958 ± 1.3.

As for NQMVWMVELWRTVDCVVLNV, the amyloid nucleation score is -0.17 ± 0.34.

As for RSLFFV, the amyloid nucleation score was -0.867 ± 0.86.

For the substance RWTVLRIWIYEVQKIAARRS, the amyloid nucleation score turned out to be 0.098 ± 0.44.

In the case of LLMGFGGAFSVNTADPRLLV, the amyloid nucleation score was -0.752 ± 0.65.

In turn, GGSRTIVP displayed an amyloid nucleation score of 0.411 ± 0.48.

As for FKEYQRNA, the amyloid nucleation score is -1.04 ± 2.7.

Turning to IKSEAWICCTSLYMNQGDRS, the amyloid nucleation score came to 8.507 ± 0.065.

Regarding KWVWDLMMVDSGLRLSSHVL, the amyloid nucleation score stood at 0.026 ± 0.35.

Regarding CYFCYQGYMID, the amyloid nucleation score is -0.537 ± 0.33.

In the case of DFSVQKSGSYQTEHYLVFRN, the amyloid nucleation score is -0.12 ± 0.21.

In turn, FLRLAWGFLIMHEIRYAGWS had an amyloid nucleation score of 0.413 ± 1.2.

For SEPEKG, the amyloid nucleation score is -0.463 ± 0.43.

For the substance VNPFIFLNRNCAPILGWTCC, the amyloid nucleation score came out at 3.11 ± 0.11.

For GRLSYIIRSYSLIRV, the amyloid nucleation score is -1.21 ± 0.5.

With QRMLDTLH, the amyloid nucleation score is -0.134 ± 1.7.

For DFCFPSNVRGLDCGGSKGYR, the amyloid nucleation score result is “inactive”.

In the case of CLGYGYSSEDTQTSLCSGVE, the amyloid nucleation score was -0.642 ± 1.

On to KVVRAACCQKMFERVGVHGG, for which the amyloid nucleation score was -0.842 ± 0.94.

Turning to RKNSNDEASS, the amyloid nucleation score is -0.339 ± 0.31.

On to VVCRPTWRWGLKEIYE, for which the amyloid nucleation score is -0.133 ± 0.83.

The substance ETNLFVLNVNNVLVVFWCPP came in with an amyloid nucleation score of 6.938 ± 0.046.

In the case of YPGNSGSIY, the amyloid nucleation score was -0.266 ± 0.91.

Substance SGCLLSDGEF displayed an amyloid nucleation score of 0.046 ± 0.32.

Regarding FSTMAYTWVLYTSWACAGAS, the amyloid nucleation score worked out at 0.075 ± 0.69.

NTREVSVRETDCCKLTCMIA: the amyloid nucleation score was 7.743 ± 0.043.

Consider YRFWEI, for which the amyloid nucleation score was -0.25 ± 0.35.

On to MRLSHAVTYRN, for which the amyloid nucleation score was -0.987 ± 1.7.

As to MFSQLGVYISCFLSSSVDVE, the amyloid nucleation score is 0.317 ± 0.48.

Take WFRYYYLFNRVRTFRERTNF: the amyloid nucleation score turned out to be 0.094 ± 1.4.

For CSYDNVPDLFC, the amyloid nucleation score was 0.582 ± 0.68.

For GHYRFVSFRFSWAEGAQLRG, the amyloid nucleation score is 1.68 ± 0.25.

For VRNNNFAYVNSVTDGVRYAR, the amyloid nucleation score entry was “inactive”.

For the substance VGLTARHKCWVGTCRGGPRT, the amyloid nucleation score is -0.711 ± 1.3.

For INVFNCCWRLIFVLEV, the amyloid nucleation score was found to be 2.72 ± 0.14.

For the substance AWMSRIVNNPGSNTFSRQWL, the amyloid nucleation score is -0.284 ± 0.71.

On to WVSSEWISTC, for which the amyloid nucleation score is -0.268 ± 1.4.

On to FQGLSFKHGAIGSAYSQSFD, for which the amyloid nucleation score result is “inactive”.

NNGPIPNILKEL showed an amyloid nucleation score of 0.523 ± 0.41.

CLILTRCVSYGRPMTACLVL: the amyloid nucleation score is 0.16 ± 0.56.

In the case of RNVGFLFSKRDQPWLKSPGD, the amyloid nucleation score is -0.983 ± 2.4.

As to EKDVAIFLDLGYFHCTRSST, the amyloid nucleation score was 1.97 ± 0.2.

Take RSEVYFNWGLNASMEVSPLC: the amyloid nucleation score is -0.02 ± 0.41.

As for TVLWWSSGDSGSCWYYCKIE, the amyloid nucleation score was -0.177 ± 0.31.

Turning to IVPRAFIAWIAYQGRSPYGA, the amyloid nucleation score is 0.619 ± 1.2.

Turning to SELYLFSSRGIYQSTRLRLR, the amyloid nucleation score is -0.147 ± 0.81.

FLAVIGAPNRCDFGQSMLRM: the amyloid nucleation score came to 3.51 ± 0.081.

EDVAYYGNGFRLTYDRQITL: the amyloid nucleation score is -0.733 ± 0.67.

The substance DGLLSIEYMNVYSSS came in with an amyloid nucleation score of 0.326 ± 0.77.

With KMLSMLTDRSFWLNHWSFFQ, the amyloid nucleation score was -0.573 ± 1.4.

For PDCLPPWSRRLLGNRVAIGL, the amyloid nucleation score was 1.01 ± 0.57.

Regarding ADLRVFHYRYFGS, the amyloid nucleation score is -0.223 ± 0.49.

Substance FVLVMLNMQ gave an amyloid nucleation score of 4.4 ± 0.093.

For the substance MVDTYRYVIISVYVMLPYYN, the amyloid nucleation score came to 1.14 ± 0.97.

In the case of VRKCRVNYGENGFKYRTRTM, the amyloid nucleation score was 0.739 ± 0.4.

EHSPRRGAL displayed an amyloid nucleation score of 0.063 ± 0.66.

In turn, VKEWGTNSVLGSYTVAQEMS gave an amyloid nucleation score of 0.096 ± 0.94.

In turn, ANKLCSVKQQTPRLRWYMGS had an amyloid nucleation score of 0.856 ± 0.48.

As for CTSPLVLIHKYYYVMVAVHS, the amyloid nucleation score was 0.821 ± 0.55.

Consider RHVGVAGFRFLPGPCDWPAR, for which the amyloid nucleation score is 3.94 ± 0.14.

For VLLYHNEDHWFCSRYYSSVS, the amyloid nucleation score result was “inactive”.

On to LYIQSSNYRDMVYPYSVVPL, for which the amyloid nucleation score came out at 1.95 ± 0.28.

As to IYRSMNRLVVQEGYAFIGGG, the amyloid nucleation score was 2 ± 0.3.

In the case of SCIWIWICNHSMFGMETGLG, the amyloid nucleation score was determined as 4.12 ± 0.1.

Consider TRLRTYKCLQMGDYHVSSFK, for which the amyloid nucleation score came out at 0.672 ± 0.79.

PYRFSYKVVESSICDNLRRR: the amyloid nucleation score was -0.094 ± 0.35.

With TVNTYSANDYVRTMVCELSV, the amyloid nucleation score entry is “inactive”.

In the case of IYCYSYYLCSFLCVYDISKG, the amyloid nucleation score is -0.457 ± 0.79.

RIENNFLSTSFVFSCLIGNM showed an amyloid nucleation score of 5.88 ± 0.07.

SARSWDLQMCFSCLYR: the amyloid nucleation score stood at 7.28 ± 0.08.

Take LSGGPSGLINAFLYPSPNKW: the amyloid nucleation score came to 0.07 ± 0.81.

As for TVTGFMF, the amyloid nucleation score is -0.645 ± 1.7.

As for FSADVIFPCISSTLQKPPWW, the amyloid nucleation score was -0.081 ± 0.54.

CSFLRFQIVMCCRLLDRVLC: the amyloid nucleation score was 1.72 ± 0.63.

In the case of VYWTVDIWVFFVTAC, the amyloid nucleation score amounted to 1.49 ± 0.13.

The substance IPRYQSGLWGCCVY registered an amyloid nucleation score of 0.489 ± 0.58.

Consider FTVVISSLNEGEEHRVWCKF, for which the amyloid nucleation score was -0.444 ± 1.2.

For LGMCFENSPVNLFWAIDSQM, the amyloid nucleation score is 1.95 ± 0.37.

With SGWRSHKLLVSSSCMNARSY, the amyloid nucleation score was -0.837 ± 0.48.

Take LPVLLSFVSYGS: the amyloid nucleation score is -0.162 ± 0.34.

For TLILVTLMASIRNDTRTSWS, the amyloid nucleation score stood at 0.979 ± 0.54.

For EGTFRLID, the amyloid nucleation score turned out to be 0.047 ± 0.3.
